Measured values reported in PMC4328751 (EMBO Reports, 2014).
Changes are numbered by the printed parent chain. In names and notes the source's numbering stands.

Key:
hHsp90 = hHsp90 (human, UniProt P08238 1-724); experiment: SPR
yHsp90 = yHsp90 (yeast, UniProt P02829 1-709); experiment: SPR
yHsp70 [1] = molecular target: T1, yHsp70 (yeast, UniProt P10591 1-642, 5-(and-6)-carboxyfluorescein coupled (in the analytical ultracentrifugation)); experiment: AUC
yHsp70 [2] = molecular target: T1, yHsp70; experiment: SPR

T1 sequence (P10591 whole entry): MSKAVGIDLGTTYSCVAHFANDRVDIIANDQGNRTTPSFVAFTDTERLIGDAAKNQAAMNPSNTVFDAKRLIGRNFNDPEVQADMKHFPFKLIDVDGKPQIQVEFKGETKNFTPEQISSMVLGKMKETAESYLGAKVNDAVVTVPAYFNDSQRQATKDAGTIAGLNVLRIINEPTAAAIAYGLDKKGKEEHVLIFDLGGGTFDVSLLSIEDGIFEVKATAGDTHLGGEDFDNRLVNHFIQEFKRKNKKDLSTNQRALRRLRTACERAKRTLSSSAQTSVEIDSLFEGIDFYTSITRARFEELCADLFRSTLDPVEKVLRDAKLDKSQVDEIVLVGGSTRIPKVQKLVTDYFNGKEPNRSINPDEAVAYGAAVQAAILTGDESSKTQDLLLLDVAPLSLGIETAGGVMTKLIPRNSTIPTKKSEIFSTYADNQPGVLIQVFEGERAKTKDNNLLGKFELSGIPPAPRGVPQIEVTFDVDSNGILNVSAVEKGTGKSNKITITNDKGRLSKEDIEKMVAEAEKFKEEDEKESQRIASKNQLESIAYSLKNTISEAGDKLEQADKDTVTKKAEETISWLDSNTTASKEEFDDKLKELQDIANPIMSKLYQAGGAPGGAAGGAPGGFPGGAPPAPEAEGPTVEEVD
Chain of yHsp90 (P02829 whole entry): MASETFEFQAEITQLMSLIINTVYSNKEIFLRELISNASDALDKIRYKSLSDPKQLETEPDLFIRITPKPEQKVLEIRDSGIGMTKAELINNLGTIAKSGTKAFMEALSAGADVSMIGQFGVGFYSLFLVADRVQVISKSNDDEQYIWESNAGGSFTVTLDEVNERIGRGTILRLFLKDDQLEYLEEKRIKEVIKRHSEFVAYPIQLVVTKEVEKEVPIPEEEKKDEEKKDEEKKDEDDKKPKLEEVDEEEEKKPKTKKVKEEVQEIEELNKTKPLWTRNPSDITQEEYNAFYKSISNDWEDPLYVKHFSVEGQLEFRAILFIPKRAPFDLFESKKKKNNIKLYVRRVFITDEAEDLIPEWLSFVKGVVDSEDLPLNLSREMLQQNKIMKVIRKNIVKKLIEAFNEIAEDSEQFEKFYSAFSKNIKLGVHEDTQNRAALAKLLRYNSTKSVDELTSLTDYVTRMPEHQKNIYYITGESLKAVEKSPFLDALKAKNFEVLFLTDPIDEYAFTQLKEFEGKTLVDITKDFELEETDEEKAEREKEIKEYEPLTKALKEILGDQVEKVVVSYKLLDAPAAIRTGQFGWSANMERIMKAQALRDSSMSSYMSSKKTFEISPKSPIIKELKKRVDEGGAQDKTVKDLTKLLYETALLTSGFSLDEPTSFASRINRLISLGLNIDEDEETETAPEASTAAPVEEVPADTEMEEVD
Chain of hHsp90 (P08238 whole entry): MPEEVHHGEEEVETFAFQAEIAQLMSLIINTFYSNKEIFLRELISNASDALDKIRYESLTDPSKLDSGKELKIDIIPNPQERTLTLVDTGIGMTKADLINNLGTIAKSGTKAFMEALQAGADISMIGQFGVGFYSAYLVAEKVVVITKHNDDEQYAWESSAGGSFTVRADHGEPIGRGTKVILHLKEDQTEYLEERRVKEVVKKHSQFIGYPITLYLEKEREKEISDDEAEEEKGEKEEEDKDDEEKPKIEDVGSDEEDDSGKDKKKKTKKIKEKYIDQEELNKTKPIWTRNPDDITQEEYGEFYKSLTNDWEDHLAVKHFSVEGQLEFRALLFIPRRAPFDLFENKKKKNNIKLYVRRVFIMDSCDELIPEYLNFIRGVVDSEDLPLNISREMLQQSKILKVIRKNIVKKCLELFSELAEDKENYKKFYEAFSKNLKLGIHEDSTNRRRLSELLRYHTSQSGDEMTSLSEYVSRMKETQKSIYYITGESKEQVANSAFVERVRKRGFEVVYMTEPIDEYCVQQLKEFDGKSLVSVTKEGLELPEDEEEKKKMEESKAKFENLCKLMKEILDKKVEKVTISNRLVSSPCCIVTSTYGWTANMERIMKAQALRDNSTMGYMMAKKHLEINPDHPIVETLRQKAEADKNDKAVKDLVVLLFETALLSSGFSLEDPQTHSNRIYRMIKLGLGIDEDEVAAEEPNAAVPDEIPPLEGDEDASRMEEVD

B1: Sti1 (natural protein)
chain: MSLTADEYKQQGNAAFTAKDYDKAIELFTKAIEVSETPNHVLYSNRSACYTSLKKFSDALNDANECVKINPSWSKGYNRLGAAHLGLGDLDEAESNYKKALELDASNKAAKEGLDQVHRTQQARQAQPDLGLTQLFADPNLIENLKKNPKTSEMMKDPQLVAKLIGYKQNPQAIGQDLFTDPRLMTIMATLMGVDLNMDDINQSNSMPKEPETSKSTEQKKDAEPQSDSTTSKENSSKAPQKEESKESEPMEVDEDDSKIEADKEKAEGNKFYKARQFDEAIEHYNKAWELHKDITYLNNRAAAEYEKGEYETAISTLNDAVEQGREMRADYKVISKSFARIGNAYHKLGDLKKTIEYYQKSLTEHRTADILTKLRNAEKELKKAEAEAYVNPEKAEEARLEGKEYFTKSDWPNAVKAYTEMIKRAPEDARGYSNRAAALAKLMSFPEAIADCNKAIEKDPNFVRAYIRKATAQIAVKEYASALETLDAARTKDAEVNNGSSAREIDQLYYKASQQRFQPGTSNETPEETYQRAMKDPEVAAIMQDPVMQSILQQAQQNPAALQEHMKNPEVFKKIQTLIAAGIIRTGR
binding result (hHsp90): binds | fold stronger binding than to hHsp90 (yHsp90): ~2 fold | binding result (yHsp70 [1]): binds

B2: Sti1 S95E (natural protein)
chain: B1 chain with S95E
binding result (yHsp70 [1]): binds

B3: Sti1 S227E (natural protein)
chain: B1 chain with S227E
binding result (yHsp70 [2]): binds

B4: Sti1 S258E (natural protein)
chain: B1 chain with S258E
binding result (yHsp70 [2]): binds

B5: Sti1 S410E (natural protein)
chain: B1 chain with S410E
fold increase in KD against the wild type (yHsp70 [2]): ~2 fold

B6: Sti1 T37E (natural protein)
chain: B1 chain with T37E
binding result (yHsp70 [2]): binds

B7: Hop S16E (natural protein)
chain: not shown
binding result (yHsp70 [2]): binds

B8: Hop Y354E (natural protein)
chain: not shown
fold increase in KD against the wild type (yHsp70 [2]): ~2 fold
